Source: patent US12643935B2, “PD-L1 binding peptides” (UNIVERSITY OF SOUTHERN CALIFORNIA, priority 2020, dated 2026)
Entries after “also recorded” stand apart in the source; their conditions may differ. Where no end group is shown, it is not given here. [ ]: non-standard residue; d: D form. NMeNle = CCCC[C@H](NC)C(=O)O; NMeA = CN[C@@H](C)C(=O)O

How the values were obtained:
hPD-L1 [1] = molecular target: T1, hPD-L1 (Homo sapiens, UniProt Q9NZQ7); test: Radiolabeled [35S] peptide binding assay on immobilized hPD-L1; set-up: designed from A18 to T239 with a methionine added to the N-terminus; hexahistidine tag (C); made in house; conditions: for hPD-L1 binding of SPAM alanine mutant normalized to SPAM: [35S]-labeled variants, n=3
Protocol: [^35S]-labeled peptides were translated as described above by including 2 μCi labeled methionine (Perkin Elmer) per 10 pmol of template in the translation reaction. Each peptide was tested with a […] (for X9-library derived peptides) (SEQ ID NO: 11) or a […] (for X17-library derived peptides) (SEQ ID NO: 12) C-terminal sequence. […] The supernatant was removed and was counted. The beads were subsequently washed three times with 1 mL of blocking buffer and the washes were also counted. Finally, the beads were resuspended in 1 mL of blocking buffer and were counted separately. The ratio of the counts remaining on the beads to the total counts added to the binding reaction (the sum of the counts for supernatant, washes, and beads) was calculated to determine the percent bound.

hPD-L1 [2] = conditions: known peptides; cited from earlier work
hPD-L1 [3] = molecular target: T1, hPD-L1; test: Radioactive binding assay of second-generation clones on immobilized human PD-L1; set-up: target for immobilization and selection, the extracellular domain of hPD-L1 (from A18 to T239); hexahistidine tag (C); conditions: 22° C., 2.5 or 12.5 pmol immobilized PD-L1
hPD-L1 [4] = molecular target: T1, hPD-L1; test: Binding of second-generation fusions after RNase treatment and in 25% human serum; set-up: target for immobilization and selection, the extracellular domain of hPD-L1 (from A18 to T239); hexahistidine tag (C); conditions: 22° C., 25 pmol PD-L1; for binding to hPD-L1 after RNase treatment: RNase A 30 min 37° C.; for binding to hPD-L1 in human serum: RNase-treated fusions in 25% human serum in DMEM
Protocol: The sequences identified from Sanger sequencing (A,B,C,D) were tested under binding conditions modified to be similar to physiological conditions and compared to the wildtype sequence (S) (FIG. 14). Sequences were prepared as fusions in standard blocking buffer, as RNase-treated fusions (RNase A treatment for 30 min. at 37° C.) in standard blocking buffer, or as RNase-treated fusions in 25% human serum in DMEM. Binding was measured at 22° C. with 0 and 25 pmol biotinylated PD-L1.

H7A: SPAM variant, alanine substituted at position 7 (MPIFLDAILNKFWILHYAGSGSSGHHHHHHSS) [Peptide H7A]
hPD-L1 binding of SPAM alanine mutant normalized to SPAM (hPD-L1 [1]): completely abolished hPD-L1 binding

P2A: SPAM variant, alanine substituted at position 2 (MAIFLDHILNKFWILHYAGSGSSGHHHHHHSS) [Peptide P2A]
hPD-L1 binding of SPAM alanine mutant normalized to SPAM (hPD-L1 [1]): decreased levels of hPD-L1 binding

Y18A: SPAM variant, alanine substituted for tyrosine (position 17 of SPAM) (MPIFLDHILNKFWILHAAGSGSSGHHHHHHSS) [Peptide Y18A]
hPD-L1 binding of SPAM alanine mutant normalized to SPAM (hPD-L1 [1]): decreased levels of hPD-L1 binding

L5A: SPAM variant, alanine substituted at position 5 (MPIFADHILNKFWILHYAGSGSSGHHHHHHSS) [Peptide L5A]
hPD-L1 binding of SPAM alanine mutant normalized to SPAM (hPD-L1 [1]): little or no significant influence

L9A: SPAM variant, alanine substituted at position 9 (MPIFLDHIANKFWILHYAGSGSSGHHHHHHSS) [Peptide L9A]
hPD-L1 binding of SPAM alanine mutant normalized to SPAM (hPD-L1 [1]): little or no significant influence

KHAHHTHNLRLP [D-PPA-2]
Kd (hPD-L1 [2]): 1130 nM

MEFTSDHSLNKFIILHYANNPF [Peptide C]
binding to immobilized human PD-L1 relative to parental SPAM (S) (hPD-L1 [3]): comparable binding to the most frequent sequences; also recorded: better binding than the parental SPAM
binding to hPD-L1 after RNase treatment (hPD-L1 [4]): significant net binding; also recorded: show binding
binding to hPD-L1 in human serum (hPD-L1 [4]): significant net binding; also recorded: show binding

MYSRVDHNLNKFWILHQALKSN [Peptide 8]
binding to immobilized human PD-L1 relative to parental SPAM (S) (hPD-L1 [3]): better binding than the parental SPAM

W13A: SPAM variant, alanine substituted at position 13 (MPIFLDHILNKFAILHYAGSGSSGHHHHHHSS) [Peptide W13A]
hPD-L1 binding of SPAM alanine mutant normalized to SPAM (hPD-L1 [1]): completely abolished hPD-L1 binding

Cyclo[(AcPhe)NMeAla)NPHLSWSW(NMeNle)(NMeNle)RC]Gly-NH2 (Ac-F[NMeA]NPHLSWSW[NMeNle][NMeNle]RCG-NH2; bridge (positions not given here); also: cyclic, ring from residue 1 to Cys 14, linkage type not given here) [Peptide-57]
EC50 (hPD-L1 [2]): 566 nM
IC50 (hPD-L1 [2]): 9 nM

H16A: SPAM variant, alanine substituted at position 16 (MPIFLDHILNKFWILAYAGSGSSGHHHHHHSS) [Peptide H16A]
hPD-L1 binding of SPAM alanine mutant normalized to SPAM (hPD-L1 [1]): completely abolished hPD-L1 binding

MYTDADHILNKFLIMHYARNQQ [Peptide 1]
binding to immobilized human PD-L1 relative to parental SPAM (S) (hPD-L1 [3]): better binding than the parental SPAM

L15A: SPAM variant, alanine substituted at position 15 (MPIFLDHILNKFWIAHYAGSGSSGHHHHHHSS) [Peptide L15A]
hPD-L1 binding of SPAM alanine mutant normalized to SPAM (hPD-L1 [1]): completely abolished hPD-L1 binding

Cyclo[(AcPhe)(NMePhe)(NMeNle)(Sar)DV(NMePhe)Y(Sar)WYLC-Gly-NH2 [Peptide-71]
EC50 (hPD-L1 [2]): 293 nM
IC50 (hPD-L1 [2]): 7 nM

MYTLTDHILNKFWIMHYARNPT
binding to immobilized human PD-L1 relative to parental SPAM (S) (hPD-L1 [3]): comparable binding to the most frequent sequences; also recorded: better binding than the parental SPAM
binding to hPD-L1 after RNase treatment (hPD-L1 [4]): significant net binding; also recorded: show binding
binding to hPD-L1 in human serum (hPD-L1 [4]): significant net binding; also recorded: show binding

K11A: SPAM variant, alanine substituted at position 11 (MPIFLDHILNAFWILHYAGSGSSGHHHHHHSS) [Peptide K11A]
hPD-L1 binding of SPAM alanine mutant normalized to SPAM (hPD-L1 [1]): completely abolished hPD-L1 binding

F12A: SPAM variant, alanine substituted at position 12 (MPIFLDHILNKAWILHYAGSGSSGHHHHHHSS) [Peptide F12A]
hPD-L1 binding of SPAM alanine mutant normalized to SPAM (hPD-L1 [1]): completely abolished hPD-L1 binding

MWSRSDHNLNKFWILHYSANPS [Peptide 7]
binding to immobilized human PD-L1 relative to parental SPAM (S) (hPD-L1 [3]): better binding than the parental SPAM

F4A: SPAM variant, alanine substituted at position 4 (MPIALDHILNKFWILHYAGSGSSGHHHHHHSS) [Peptide F4A]
hPD-L1 binding of SPAM alanine mutant normalized to SPAM (hPD-L1 [1]): little or no significant influence

MWSITDHNLNKFWILHYATKHG
binding to immobilized human PD-L1 relative to parental SPAM (S) (hPD-L1 [3]): better binding than the parental SPAM
binding to hPD-L1 after RNase treatment (hPD-L1 [4]): significant net binding; also recorded: show binding
binding to hPD-L1 in human serum (hPD-L1 [4]): significant net binding; also recorded: show binding

DYHDPSLPTLRK [CLP004]
IC50 (hPD-L1 [2]): 1170 nM
Kd (hPD-L1 [2]): 544 nM

WHRSYYTWNLNT [CLP002]
IC50 (hPD-L1 [2]): 2170 nM
Kd (hPD-L1 [2]): 366 nM

A18: SPAM variant, glycine substituted for alanine at position 18 (MPIFLDHILNKFWILHYGGSGSSGHHHHHHSS; not fully specified) [Peptide A18]
hPD-L1 binding of SPAM alanine mutant normalized to SPAM (hPD-L1 [1]): completely abolished hPD-L1 binding

MYTQTDHTLNKFLIMHEAFNST [Peptide 3]
binding to immobilized human PD-L1 relative to parental SPAM (S) (hPD-L1 [3]): better binding than the parental SPAM

18A: SPAM variant, alanine substituted at position 8 (MPIFLDHALNKFWILHYAGSGSSGHHHHHHSS) [Peptide 18A]
hPD-L1 binding of SPAM alanine mutant normalized to SPAM (hPD-L1 [1]): little or no significant influence

NYSKPTDRQYHF [D-PPA-1]
Kd (hPD-L1 [2]): 510 nM

HYPFRPHANQAS [CLP001]
Kd (hPD-L1 [2]): 534 nM

13A: SPAM variant, alanine substituted at position 3 (MPAFLDHILNKFWILHYAGSGSSGHHHHHHSS) [Peptide 13A]
hPD-L1 binding of SPAM alanine mutant normalized to SPAM (hPD-L1 [1]): little or no significant influence

WHFSYNWRWLPP [CLP003]
IC50 (hPD-L1 [2]): 2220 nM
Kd (hPD-L1 [2]): 117 nM

MYSLNDHNLNKFWILHFAVNQM [Peptide 5]
binding to immobilized human PD-L1 relative to parental SPAM (S) (hPD-L1 [3]): better binding than the parental SPAM

114A: SPAM variant, alanine substituted at position 14 (MPIFLDHILNKFWALHYAGSGSSGHHHHHHSS) [Peptide 114A]
hPD-L1 binding of SPAM alanine mutant normalized to SPAM (hPD-L1 [1]): completely abolished hPD-L1 binding

D6A: SPAM variant, alanine substituted at position 6 (MPIFLAHILNKFWILHYAGSGSSGHHHHHHSS) [Peptide D6A]
hPD-L1 binding of SPAM alanine mutant normalized to SPAM (hPD-L1 [1]): completely abolished hPD-L1 binding

MYSHNDHNLNKFWILHFAVNQM [Peptide B]
binding to immobilized human PD-L1 relative to parental SPAM (S) (hPD-L1 [3]): better binding than the parental SPAM
binding to hPD-L1 after RNase treatment (hPD-L1 [4]): significant net binding; also recorded: show binding
binding to hPD-L1 in human serum (hPD-L1 [4]): significant net binding; also recorded: show binding

MRIFAVFIFMTYWHLLNA [hPD-L1 signal peptide]
binding to heavily loaded hPD-L1 beads (hPD-L1 [1]; streptavidin agarose beads loaded with 1.1 μM hPD-L1 (1,100 pmol)): some binding

MYTSTDHILNKFLILHESLQST [Peptide 6]
binding to immobilized human PD-L1 relative to parental SPAM (S) (hPD-L1 [3]): better binding than the parental SPAM

N10A: SPAM variant, alanine substituted at position 10 (MPIFLDHILAKFWILHYAGSGSSGHHHHHHSS) [Peptide N10A]
hPD-L1 binding of SPAM alanine mutant normalized to SPAM (hPD-L1 [1]): completely abolished hPD-L1 binding

MKHSTDHVLNKFYIMHYTANPN [Peptide 9]
binding to immobilized human PD-L1 relative to parental SPAM (S) (hPD-L1 [3]): better binding than the parental SPAM

SGQYASYHCWCWRDPGRSGGSK [TPP-1]
Kd (hPD-L1 [2]): 95 nM
